The values that follow come from patent US8962263B2, “Methods and compositions for detecting the activation state of multiple proteins in single cells” (The Board of Trustees of the Leland Stanford Junior …, priority 2001, dated 2015).

What all share (format): cell-based
In assay [1] the test system is Pyk2. Briefly: sICAM-2 induced Pyk2 phosphorylation (phospho-tyrosine based ELISA, chemical genetic approach). The note with it: phospho-tyrosine based ELISA. In outline: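 Chemical genetic approach: sICAM-2-stimulated cells treated with selected kinase/pathway inhibitors (PKC inhibitors BIM I, BIM II, staurosporine; tyrphostin A9; neomycin; piceatannol); phosphorylation status of Pyk2 and Syk measured by phospho-tyrosine ELISA.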
For orientation: In an ELISA, binding on a coated surface is turned into a signal by an enzyme label.

Assay [2] relates to HL60 cells. The assay can be described thus: FACS based effector-target killing assay, human PBMC against CFSE labeled HL60 cells. The note with it: 10 μg/ml, 50:1 E:T ratio, 4 hrs. How it is done: A) PBMC were either treated with ICAM-2, (10 μg/ml) in the presence of IL-2, for 12, hr and then incubated with CFSE labeled target HL60, cells at a 50:1, E:T ratio for 4, hrs. Remaining HL60, cells were quantified by flow cytometry. B) PBMC were treated with IL-2, (100, U/ml, 12, hrs) and treated with ICAM-1,-2, or 3, FC proteins (10, μg/ml) and used in a cytotoxicity assay as described above. Results are representative of 4, independent experiments.
(§1) Target cell lysis was measured by flow cytoemtric based detection of CFSE labeled HL60 cells. HL60 cells were labeled with 1 μg of CFSE (30 min, 37° C.). Targets were washed twice and mock treated, IL-2 activated (100 U/ml), CD3/CD28 activated (1 μg/ml), or treated with ICAM2 beads or soluble ICAM-1, -2, or 3 (10 μg/ml, 30 min, 37° C.) before plating at 10^4 target cells/well of a 96-well round bottom plate. CTLs were added at 50:1, 25:1, and 12.5:1 E:T ratio, and incubated at 37° C. for 4 hrs. Cells were then processed for multiparameter flow cytometry and intracellular perforin stain. Percent specific lysis was calculated by the following equation: % specific lysis=100-100×(experimental HL60 count/total control HL60 count). HL60 counts were detectable by the CFSE fluorescence. Percent perforin was calculated by the following equation: % perforin=100×[(experimental perforin MFI−isotype mAb MFI)/(total perforin MFI−isotype mAb MFI)]. MFI refers to mean fluorescent intensity of flow cytoemtric based intracellular detection. Cell conjugates were determined by flow cytometry as described (Morgan et al., 2001). Chemical inhibition was done at 10 μM of indicated compound (30 min, 37° C.) prior to stimulation as indicated. All experiments were performed in triplicate.

Assay [3] has as its system CD56 CD8 cytotoxic lymphocyte subsets. Briefly: intracellular perforin and granzyme-A in CD56CD8 subsets of human PBMC by flow cytometry. As for the experimental part: IL-2, activated PBMC (shown in A-1 and A-3) were mock-treated (IgG) (A-2) , ICAM-1, (A2), ICAM-2, (A4), or ICAM-3, (A4) treated (10, μg/ml of FC fusion protein) for 12 hrs prior to incubation with target HL60, cells at a 50:1, E:T ratio for 4, hrs. Cells were then prepared for flow cytometry with CD8-CY5PE, CD56-PE surface stains, and perforin-CY5, and granzyme-A-FITC intracellular stains. Cells were gated for CD56^+CD8^low, CD56^+CD8^med, CD56^+, CD8^high, CD56^−, CD8^−, , CD56^−-CD8^high, populations as shown in A-1 and A-3 and population frequencies within appropriate gate. […] Results are representative of 3 independent experiments and were similar at 25:1 and 12.5:1 E:T ratios (data not shown). Manual calibration was performed. […] Perforin percentage was calculated from the following equation where MFI equals mean fluorescent intensity: 100×[(MFIexperimental−MFIisotype mAb)/(MFIcontrol−MFlisotype mAb)] Unstimulated cells were used as control.
as §1

In the case of `CN(C)CCCn1cc(C2=C(c3c[nH]c4ccccc34)C(=O)NC2=O)c2ccccc21` [bisindolymaleimide I], the “sICAM-2 induced Pyk2 phosphorylation” value in assay [1] is on record as “affected”.

B1: ICAM-2: biochemically purified soluble human ICAM-2 protein from retrovirally transduced NIH3T3 cells; ICAM-2-FC fusion also used (protein, UniProt P13598 25-223, looked up)
extracellular domain: KVFEVHVRPKKLAVEPKGSLEVNCSTTCNQPEVGGLETSLDKILLDEQAQWKHYLVSNISHDTVLQCHFTCSGKQESMNSNVSVYQPPRQVILTLQPTLVAVGKSFTIECRVPTVEPLDSLTLFLFRGNETLHYETFGKAAPAPQEATATFNSTADREDGHRNFSCLAVLDLMSRGGNIFHKHSAPKMLEIYEPVSDSQ
modifications: extracellular domain
notes: biochemically purified soluble human ICAM-2 protein from retrovirally transduced NIH3T3 cells; ICAM-2-FC fusion also used
Consider B1, for which, in assay [2], the “target cell lysis of HL60 cells” value is “could initiate target cell lysis in the presence of IL-2 but not in the absence of IL-2”. Further, the granzyme-A negative population in assay [3] (CD56+CD8high population) is recorded as 58.3%. In assay [3] (CD56+CD8low population), the “changes in intracellular perforin or granzyme-A” value is “no significant changes”. Moreover, the “frequency of the perforin negative population” value in assay [3] (CD56+CD8med population) is 21.5%.
